In patent US20090136516A1 (DUKE UNIVERSITY, published 2009):

What was measured:
mouse CD20 [1] = target: T1, mouse CD20 (mouse, UniProt P19437 1-291); assay: indirect immunofluorescence, flow cytometry, cultured mouse spleen B cells at 37 C; design: reference not given here
T1 construct: whole, on cells; Endogenous mouse CD20 on primary B cells; also called cell-surface CD20
T1 sequence (looked up): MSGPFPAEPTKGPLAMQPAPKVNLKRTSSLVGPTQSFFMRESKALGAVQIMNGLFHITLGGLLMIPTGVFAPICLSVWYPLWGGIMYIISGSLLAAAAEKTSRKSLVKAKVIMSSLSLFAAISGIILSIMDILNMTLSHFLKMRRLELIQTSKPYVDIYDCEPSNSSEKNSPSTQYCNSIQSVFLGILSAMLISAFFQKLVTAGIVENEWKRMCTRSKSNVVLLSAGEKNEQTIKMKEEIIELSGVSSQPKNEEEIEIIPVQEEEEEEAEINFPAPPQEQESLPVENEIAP

mouse CD20 [2] = target: T1, mouse CD20; assay: flow cytometry, mouse spleen CD19+ B cells, mAb at 0.5 µg/mL, isotype-specific secondary antibody
Description: Twelve mouse anti-mouse CD20 monoclonal antibodies, with representatives of each IgG isotype, were assessed for their ability to bind B cells and deplete them in vivo. Each monoclonal antibody reacted uniformly with CD19⁺ primary B cells in vitro with characteristic mean fluorescence intensities that were independent of monoclonal antibody isotype (FIG. 6A). When monoclonal antibody reactivity with primary B cells was assessed over a range of monoclonal antibody concentrations, most monoclonal antibodies reached saturating levels of staining when used at concentrations between 1-10 μg/mL (FIG. 6B). […] When all monoclonal antibodies were used at 0.5 μg/mL, each monoclonal antibody reacted uniformly with CD19⁺ primary B cells with characteristic low to high mean fluorescence intensities (FIG. 6C, Table 5). Similar results were obtained using a mouse CD20 cDNA-transfected pre-B cell line with anti-mouse Ig secondary antibody. Based on this analysis, the MB20-1 monoclonal antibody represented monoclonal antibodies with the lowest relative affinity/avidity, while the MB20-18 monoclonal antibody reacted strongly with B cells and stained B cells at the highest levels of all 12 anti-CD20 monoclonal antibodies (Table 5).

- increase in antibody binding over time (mouse CD20 [1]): 97%
- B cell reactivity (mean linear fluorescence intensity) (mean linear fluorescence intensity) (mouse CD20 [2]): 158
B1: MB20-11 monoclonal antibody (antibody, part only; not given: light chain, V domains shown, part only)
VH: EVQLQESGPELVKPGASVKMSCKASGYKITDYNMHWVKQSHGKSLEWIGYIAPYNGGTTYNQKFKGKATLTVNKSSSTAYMELRSLTSEDSAVYYCAGALDYWGQGTSVTVSS
